Measurements from patent publication US20090131309A1, “ICA512 COUPLES INSULIN SECRETION AND GENE EXPRESSION IN BETA-CELLS” (Technische Universität Dresden Medizinizche Fakultät Carl …, priority 2004, published 2009).

What was measured:
Insulin mRNA = Insulin mRNA levels by real-time PCR in INS-1 cells; type: cell-based, rat
Procedure: Time-course stimulation of INS-1 cells. INS-1 ceils were incubated for 1 hr. in resting buffer (2.8 mM glucose and 5 mM KCl), then for 6 hrs. in resting or stimulating buffer, with or without 40 μM calpeptin, and then again in resting buffer for up to 24 hrs. Total RNA for real-time PCR was collected at time 0, 2 and 6 hrs. during stimulation and at 2, 6, 12 and 24 hrs. during the following resting period.
Real-time PCR. Total RNA from INS-1 cells was isolated with Trizol (Invitrogen, Karlsruhe, Germany) according to the manufacturer's protocol. 1 μg of total RNA was used for the reverse transcriptase reaction, with 2 μM specific antisense primers for […] and insulin, as described (31). mRNA expression was measured by quantitative real-time PCR using the Brilliant SYBR Green QPCR (Stratagene, La Jolla, Calif.) with an Mx4000 Multiplex Quantitative Real Time PCR System (Stratagene).

pro-ICA512 = assay: Immunoblot for pro-ICA512 and ICA512-TMF in INS-1 cells; type: cell-based, rat
Procedure: (§1) Culture of INS-1 cells. INS-1 cells were grown as described^27. In some instances cells were pre-incubated for 1 hour in resting buffer (0 mM glucose, 5 mM KCl) and then for 2 or 6 hours in resting or stimulating (25 mM glucose, 55 mM KCl) buffers as described^7. Calpeptin (Calbiochem) was added in the last 15 minutes of the pre-incubation, and then for the entire following period before cells were harvested. Cells were stimulated with 20 nM human growth hormone (hGH) for 20 minutes following 18 hours incubation in low serum medium (LSM) containing RPMI-1640, 11 mM glucose, 0.5% FBS 25 mM HEPES, 1% penicillin-streptomycin and 0.05 mM β-mercaptoethanol. After washing, cells were either harvested or incubated in LSM for 6 additional hours. For immunoprecipitation cells were collected 1 hour after stimulation with hGH.
Cell extracts and western blotting. INS-1 cells and pancreatic islets were harvested at 4° C. in RIPA buffer [50 mM Tris-HCl at pH 8.0, 150 mM NaCl, 1% NP-40, 0.1% SDS, 0.5% sodium deoxycholate, and 1× protease inhibitor cocktail (Sigma)] to obtain total extracts. Insoluble material was removed by centrifugation. Cytosolic and nuclear extracts were prepared using the NE-PER Nuclear and Cytoplasmic Extraction Reagents (Pierce). Proteins were separated by 8-10% SDS-PAGE and immunoblotted with the following antibodies: mouse monoclonals anti-ICA512^7, anti-STAT5 (Santa Cruz), anti-γ-tubulin and anti-HA (Sigma); rabbit anti-PY-STAT5 and anti-STAT3 (Cell Signaling); affinity purified goat anti-GFP IgGs. Chemiluminescence was developed using the Supersignal West Pico or Femto kits (Pierce) and detected with a LAS 3000 Bioimaging System (Fuji). Protein signals were quantified with the Image Gauge v3.45 software (Fuji). Half the amount of nuclear extract proteins were immunoblotted relative to total and cytosolic extract proteins.

ICA512 mRNA = ICA512 mRNA by real-time PCR in INS-1 cells; type: cell-based, rat; conditions: transfected INS-1 cells vs cells expressing GFP alone
Procedure: PCR and real-time PCR. Cytosolic mRNA was isolated with the Oligotex Direct mRNA kit (Qiagen) according to the manufacturer's protocol. PolyA^+-enriched RNA was reverse transcribed with specific antisense primers for ICA512 and β-actin as described^8. Amplification of a 200 bp fragment flanking the GLE in the rat insulin1 (rINS1) gene promoter by PCR and real-time PCR was performed with the following primers: sense [NT], antisense [NT]. Amplification of ICA512 and β-actin was performed as described^16.

INS-1 cells = assay: Uridine incorporation in INS-1 cells; type: cell-based, rat; conditions: relative to GFP-transfected INS-1 cells
STAT5 = assay: Firefly luciferase reporter assay for STAT activity (8GLE-CAS-FL) in INS-1 cells; type: cell-based, rat; conditions: co-transfected INS-1 cells, hGH stimulation
Procedure: Firefly luciferase assays. INS-1 cells were co-transfected with 8GLE-CAS-FL and one or two of the following plasmids: pEGFP, ICA512-CCF-GFP, ICA512-CCF(K/A^754)-GFP and PIASy-GFP. Two days after transfection, cells were incubated in low serum medium for 18 hrs, then stimulated with 20 nM hGH for 20 minutes, and finally left in resting buffer for 6 additional hours. Cells were harvested in 500 μl lysis reagent for luciferase assays (Promega) and 10 μl were used for measurement of luciferase activity in a Berthold luminometer. Each sample was performed in triplicate and the data represent the mean of at least 2 independent experiments.

STAT5b [1] = assay: Nuclear levels of STAT5b, PY-STAT5 and STAT3 in INS-1 cells (immunoblot); type: cell-based, rat
Procedure: as §1
Cell extracts and western blotting. INS-1 cells and pancreatic islets were harvested at 4° C. in RIPA buffer [50 mM Tris-HCl at pH 8.0, 150 mM NaCl, 1% NP-40, 0.1% SDS, 0.5% sodium deoxycholate, and 1× protease inhibitor cocktail (Sigma)] to obtain total extracts. Insoluble material was removed by centrifugation. […] Chemiluminescence was developed using the Supersignal West Pico or Femto kits (Pierce) and detected with a LAS 3000 Bioimaging System (Fuji). Protein signals were quantified with the Image Gauge v3.45 software (Fuji). […]

GLE of rat insulin 1 = assay: EMSA with biotinylated GLE oligonucleotide of rat insulin 1 promoter; type: binding; conditions: nuclear extracts of INS-1 cells expressing increasing amount of construct
STAT5b [2] = molecular target: T1, STAT5b (Rattus norvegicus, UniProt P52632); assay: Co-immunoprecipitation with anti-GFP antibodies from INS-1 extracts; type: binding; conditions: hGH-stimulated INS-1 cells
T1 construct: endogenous in cells; host or cells: INS-1 cells transiently transfected with ICA512-CCF-GFP
T1 sequence (P52632 1-786): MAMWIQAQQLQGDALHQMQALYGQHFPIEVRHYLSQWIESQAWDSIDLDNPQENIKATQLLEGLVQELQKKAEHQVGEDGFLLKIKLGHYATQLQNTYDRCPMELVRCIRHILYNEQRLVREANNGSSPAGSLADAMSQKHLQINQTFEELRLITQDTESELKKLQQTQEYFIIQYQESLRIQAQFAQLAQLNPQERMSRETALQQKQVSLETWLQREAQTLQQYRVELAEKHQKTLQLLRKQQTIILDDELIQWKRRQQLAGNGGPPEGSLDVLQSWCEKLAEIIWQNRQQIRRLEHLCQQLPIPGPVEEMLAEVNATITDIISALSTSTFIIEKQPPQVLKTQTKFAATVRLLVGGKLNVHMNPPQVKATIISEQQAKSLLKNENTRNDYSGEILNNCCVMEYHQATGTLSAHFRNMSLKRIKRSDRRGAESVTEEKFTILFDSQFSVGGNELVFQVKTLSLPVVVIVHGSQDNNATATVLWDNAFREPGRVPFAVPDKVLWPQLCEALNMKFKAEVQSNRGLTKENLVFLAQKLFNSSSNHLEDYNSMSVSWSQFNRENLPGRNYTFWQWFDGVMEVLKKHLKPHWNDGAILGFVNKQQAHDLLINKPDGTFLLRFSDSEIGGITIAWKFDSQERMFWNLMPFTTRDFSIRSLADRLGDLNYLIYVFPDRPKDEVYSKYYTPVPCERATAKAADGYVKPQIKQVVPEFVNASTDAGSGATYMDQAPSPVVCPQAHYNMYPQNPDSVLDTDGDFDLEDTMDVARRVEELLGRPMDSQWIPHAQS
Procedure: Immunoprecipitation. INS-1 cells were transiently transfected With one or more of the following constructs: GFP, ICA512-CCF-GFP, ICA512-CCF(K/A^754)-GFP, SUMO-1 and HA-SUMO-1. Anti-GFP IgGs were used for immunoprecipitations from total or cytosolic extracts. Immunoprecipitates were immunoblotted with anti-STAT5b, anti-PY-STAT5, anti-GFP or anti-HA antibodies. 600 μg and 200 μg protein were used as starting material for immunopreciptation of sumoylated ICA512 and STAT5, respectively.

[3] = tested on: GLE of the rat insulin I gene promoter; assay: Chromatin immunoprecipitation, GLE of rat insulin I gene promoter; type: binding; conditions: stable INS-1 cells, anti-GFP antibodies vs control IgG

B1: ICA512-CCF-GFP: ICA512 cytoplasmic fragment generated by μ-calpain, residues 659-979, fused at its C-terminus with GFP (protein)
chain: SQFSDAAQASPSSHSSTPSWCEEPAQANMDISTGHMILAYMEDHLRNRDRLAKEWQALCAYQAEPNTCATAQGEGNIKKNRHPDFLPYDHARIKLKVESSPSRSDYINASPIIEHDPRMPAYIATQGPLSHTIADFWQMVWESGCTVIVMLTPLVEDGVKQCDRYWPDEGASLYHVYEVNLVSEHIWCEDFLVRSFYLKNVQTQETRTLTQFHFLSWPAEGTPASTRPLLDFRRKVNKCYRGRSCPIIVHCSDGAGRTGTYILIDMVLNRMAKGVKEIDIAATLEHVRDQRPGLVRSKDQFEFALTAVAEEVNAILKALPQ
modifications: left off: large carriers
notes: ICA512 cytoplasmic fragment generated by μ-calpain, residues 659-979, fused at its C-terminus with GFP
Question: What does the source list for B1?
Answer: insulin mRNA levels vs amount of construct expressed (Insulin mRNA; 0.5-4 μg construct, 4 days in culture with 11 mM glucose): correlation between the increased expression of ICA512 (659-979)-GFP and the enhancement of insulin mRNA levels; Insulin mRNA increase (Insulin mRNA; resting INS-1 cells transiently transfected, vs electroporated cells): 93%; further increase of insulin mRNA by stimulation (Insulin mRNA; stimulated transfected INS-1 cells): 60%; ICA512-TMF levels (pro-ICA512; transfected INS-1 cells vs GFP): also increased; pro-ICA512 increase (pro-ICA512; transfected INS-1 cells vs cells expressing GFP alone): 40%; ICA512 mRNA increase (ICA512 mRNA): 81%; total incorporation of 3H-uridine (INS-1 cells): 270%; STAT5 transcription activity (8GLE-CAS-FL luciferase) (STAT5): partially restored; STAT5b and STAT3 in the nucleus (STAT5b [1]; INS-1 cells transfected with increasing amount of construct): dose-dependent increase; Nuclear STAT5b and nuclear PY-STAT5 (STAT5b [1]; hGH 20 nM 20 min, ICA512-CCF-GFP vs GFP cells, AD/DA mutant vs ICA512-CCF-GFP cells): clearly increased; binding of a factor, conceivably STAT5b, to the GLE oligonucleotide (GLE of rat insulin 1): positive correlation; co-immunoprecipitation of STAT5b and PY-STAT5 (STAT5b [2]): co-immunoprecipitated; co-immunoprecipitation of GLE of the rat insulin I gene promoter [3]: co-immunoprecipitated with anti-GFP antibodies
